What is called Kd is the equilibrium constant for the complex coming apart. Higher therefore signals lower affinity. What is called EC50 is the concentration needed to bring the measured effect to its halfway point. A low value points to higher potency in that assay.

The target in test [1] is T1, human activated Protein C (human, UniProt P04070 43-461).
T1 construct: also called human aPC; hAPC
Briefly: Biacore, Fab. (In general: In SPR one partner is held on a chip, and binding of the other changes the refractive index at the surface.)

For test [2], the target named is T2, mouse Protein C (zymogen) (mouse, UniProt P33587 42-460).
T2 construct: mature; also called mouse PC
T2 sequence (looked up): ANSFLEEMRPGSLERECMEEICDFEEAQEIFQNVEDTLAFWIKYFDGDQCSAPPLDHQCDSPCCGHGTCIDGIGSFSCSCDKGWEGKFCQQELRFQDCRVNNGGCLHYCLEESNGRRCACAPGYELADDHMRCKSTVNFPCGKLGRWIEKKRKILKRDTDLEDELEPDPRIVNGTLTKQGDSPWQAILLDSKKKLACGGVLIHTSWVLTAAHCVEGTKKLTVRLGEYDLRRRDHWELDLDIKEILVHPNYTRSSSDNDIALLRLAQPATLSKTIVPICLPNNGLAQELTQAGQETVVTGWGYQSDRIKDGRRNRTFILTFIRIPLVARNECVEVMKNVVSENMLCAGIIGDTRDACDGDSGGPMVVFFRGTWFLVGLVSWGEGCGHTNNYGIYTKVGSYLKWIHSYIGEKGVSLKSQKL
The test can be described thus: direct ELISA, mPC coated at 10 ug/ml, Fab at 20 nM, anti-human Fab-HRP, AmplexRed (RFU). On the procedure: (§1) To determine the binding selectivity of these fabs, their binding activities to the proenzyme human PC, to thrombin (FIIa), and to the activated Factor II (FIIa, thrombin), Factor VII (FVIIa), Factor IX (FIXa), and Factor X (FXa) were also assessed by ELISA. Briefly, an ELISA plate was coated with human aPC at 1 ug/ml, mouse PC at 10 ug/ml, dog PC at 10 ug/ml, other coagulation factors (FIIa, FVIIa, FIXa, FXa) at 5-10 ug/ml. Anti-aPC Fabs were added to the wells at 20 nM (1 ug/ml). Bound Fabs were detected by the secondary antibody (anti-human Fab-HRP) followed by HRP substrate AmplexRed.

Another test concerns the target T3, dog Protein C (zymogen) (dog, UniProt Q28278 43-456).
T3 construct: mature; also called dog PC
T3 sequence (looked up): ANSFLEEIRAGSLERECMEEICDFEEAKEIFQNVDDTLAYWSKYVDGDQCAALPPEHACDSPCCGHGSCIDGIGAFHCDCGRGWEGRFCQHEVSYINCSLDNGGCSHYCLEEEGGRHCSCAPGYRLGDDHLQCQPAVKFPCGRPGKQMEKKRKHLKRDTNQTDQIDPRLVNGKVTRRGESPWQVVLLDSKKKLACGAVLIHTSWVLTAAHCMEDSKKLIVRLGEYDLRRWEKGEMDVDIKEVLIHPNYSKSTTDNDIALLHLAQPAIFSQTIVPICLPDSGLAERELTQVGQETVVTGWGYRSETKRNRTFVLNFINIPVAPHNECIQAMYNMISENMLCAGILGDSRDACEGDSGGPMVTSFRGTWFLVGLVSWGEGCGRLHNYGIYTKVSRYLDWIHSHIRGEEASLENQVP
Briefly: direct ELISA, dPC coated at 10 ug/ml, Fab at 20 nM, anti-human Fab-HRP, AmplexRed (RFU). On the procedure:
as §1
In general terms: ELISA stands for enzyme-linked immunosorbent assay.

Test [3] deals with T4, dog activated Protein C (dog, UniProt Q28278 43-456).
T4 construct: mature; also called dog aPC; dAPC
T4 sequence (looked up): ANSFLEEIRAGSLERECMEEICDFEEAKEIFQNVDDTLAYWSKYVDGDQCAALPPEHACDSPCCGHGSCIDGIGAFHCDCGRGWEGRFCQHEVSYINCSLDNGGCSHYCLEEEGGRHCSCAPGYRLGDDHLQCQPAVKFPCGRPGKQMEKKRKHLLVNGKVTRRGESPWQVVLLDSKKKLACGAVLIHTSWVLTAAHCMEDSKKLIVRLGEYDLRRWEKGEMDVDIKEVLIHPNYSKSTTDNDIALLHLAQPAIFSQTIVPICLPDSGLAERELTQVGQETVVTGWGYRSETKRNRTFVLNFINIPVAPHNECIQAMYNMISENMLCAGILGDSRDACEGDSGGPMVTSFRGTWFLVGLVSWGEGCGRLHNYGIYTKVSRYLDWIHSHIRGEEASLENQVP
Briefly: direct ELISA, antigen coated at 100 ng/well, Fab at 20 nM (1 ug/ml), anti-human Fab-HRP, AmplexRed (RFU). Here is the method:
(§2) FIG. 3 depicts a graph characterizing anti-APC Fabs by direct ELISA. An ELISA plate was coated with human PC (hPC), human aPC (hAPC), dog aPC (dAPC), mouse aPC (mAPC) at 100 ng per well. Purified Fabs designate on the X-axis were added to the plate at 20 nM (1 ug/ml). Bound Fab was detected by the secondary antibody (anti-human Fab-HRP) followed by HRP substrate AmplexRed. The purified Fabs preferentially bind to human aPC and, with the exception of Fab R41C17, show little to no binding to human PC.
(§3) Antigens were coated directly on ELISA plates. Coating antigens included human PC (plasma-derived), human aPC (recombinant), dog aPC (plasma-derived), and mouse aPC (recombinant) at 100 ng/well in PBS/Ca buffer. After blocking the plate with 5% milk/PBS and washing the plate with PBS-Tween20, soluble Fabs (1 ug/ml, 20 nM) were added to the plate and incubated for 1 h at RT with shaking. Fab binding was detected with anti-human Fab (lambda) antibody-HRP and Amplex red as substrate. […] In contrast, R41C17 binds to both human APC and human PC. Also shown in FIG. 3 is cross-species reactivity of Fabs by ELISA.

Test [4] addresses T1, human activated Protein C. The test can be described thus: direct ELISA, antigen coated, Fab.
Test [5] has as its target T1, human activated Protein C. The test can be described thus: direct ELISA, aPC coated, hIgG1.
For test [6], the target named is T4, dog activated Protein C. Briefly: direct ELISA, antigen coated at 1 ug/ml, IgG at 20 nM, anti-human IgG-HRP, AmplexRed (RFU).
Test [7] has as its target T5, human Protein C (zymogen) (human, UniProt P04070 43-461).
T5 construct: also called human PC; hPC
The test can be described thus: direct ELISA, antigen coated at 100 ng/well, Fab at 20 nM (1 ug/ml), anti-human Fab-HRP, AmplexRed (RFU). On the procedure: as §2, §3

Test [8] deals with T5, human Protein C (zymogen). The test can be described thus: direct ELISA, antigen coated at 1 ug/ml, IgG at 20 nM, anti-human IgG-HRP, AmplexRed (RFU).

B1: R41C17 Fab (Fab, V domains shown)
VH: EVQLLESGGGLVQPGGSLRLSCAASGFTFSNYAMSWVRQSPGKGLEWVAVISYDGREKYYSDSVKGRFTISRDNSKNTLYLQMNSLRAEDTAVYYCARDRGRTFDYWGQGTLVTVTS
VL: LTQPPSASGTPGQRVTISCTGSSSNIGAGYVVHWYQQLPGTAPKLLIYRNNHRPSGVPDRFSGSKSGTSASLAISGLRSEDEADYYCAAWDDSLNGRVFGGGTKLTVLG
notes: Human Fab (lambda), expressed in E. coli; also called R4117
Regarding B1, the Kd in test [1] was determined as 4.8 nM. Further, the binding result (in test [2]; with dog Protein C (zymogen); with dog activated Protein C [3]) was “no binding (tested: 20 nM)” throughout. In addition, in test [4], the midpoint of the response, the EC50, lay at 8.6 nM.

B2: R41C17 hIgG1 (antibody, V domains shown)
VH: EVQLLESGGGLVQPGGSLRLSCAASGFTFSNYAMSWVRQSPGKGLEWVAVISYDGREKYYSDSVKGRFTISRDNSKNTLYLQMNSLRAEDTAVYYCARDRGRTFDYWGQGTLVTVTS
VL: LTQPPSASGTPGQRVTISCTGSSSNIGAGYVVHWYQQLPGTAPKLLIYRNNHRPSGVPDRFSGSKSGTSASLAISGLRSEDEADYYCAAWDDSLNGRVFGGGTKLTVLG
On to B2, for which the EC50 in test [5] came to 0.55 nM. Further, in the test with dog activated Protein C [6], the binding result was “no binding (tested: 20 nM)”.

B3: C26B9 Fab (Fab, V domains shown)
VH: EVQLLESGGGLVQPGGSLRLSCAASGFTFSSYGMHWVRQAPGKGLEWVSVIYSGGSTYYADSVKGRFTISRDNSKNTLYLQMNSLRAEDTAVYYCARMGRAFDIWGQGTLVTVTS
VL: QSVLTQPPSASGTPGQRVTISCSGSSSNIRSNTVNWYQQLPGTAPKLLIYGNSNRPSGVPDRFSGSKSGTSASLAISGLRSEDEADYYCQSYDSSLSGDVVFGGGTKLTVLG
notes: Human Fab (lambda) from a phage library, expressed in E. coli
B3 yielded a Kd in [1] of 7.9 nM. Besides, the binding result (in [2]; with dog Protein C (zymogen); with dog activated Protein C [3]; in test [7]) was “no binding (tested: 20 nM)” in each case. The same molecule gave an EC50 in [4] of 10.3 nM.

B4: C26B9 hIgG1 (antibody, V domains shown)
VH: EVQLLESGGGLVQPGGSLRLSCAASGFTFSSYGMHWVRQAPGKGLEWVSVIYSGGSTYYADSVKGRFTISRDNSKNTLYLQMNSLRAEDTAVYYCARMGRAFDIWGQGTLVTVTS
VL: QSVLTQPPSASGTPGQRVTISCSGSSSNIRSNTVNWYQQLPGTAPKLLIYGNSNRPSGVPDRFSGSKSGTSASLAISGLRSEDEADYYCQSYDSSLSGDVVFGGGTKLTVLG
With B4, a half-maximal effect in test [5] (EC50) was put at 0.65 nM. The binding result (with dog activated Protein C [6]; in test [8]) was “no binding (tested: 20 nM)” each time.

B5: O3E7 hIgG1 (antibody, V domains shown)
VH: EVQLLESGGGLVQPGGSLRLSCAASGFTFSSYSMNWVRQAPGKGLEWVSAISGSGGSTYYADSVKGRFTISRDNSKNTLYLQMNSLRAEDTAVYYCARDRRVRGIYDAFDMWGQGTLVTVTS
VL: QSVLTQPPSTSGTPGQRVTISCTGSSSNIGAGFDVHWYQQLPGTAPKLLIYGNSNRPSGVPDRFSGSKSGTSASLAISGLRSEDEADYYCATWQDTLTGWMFGGGTKLTVLG
notes: also called O3E7-IgG; 03E7
B5 yielded an EC50 in test [5] of 16.9 nM.

B6: C22J13 Fab (Fab, V domains shown)
VH: EVQLLESGGGLVQPGGSLRLSCAASGFTFSSNYMSWVRQAPGKGLEWVAVISYDGSNKYYADSVKGRFTISRDNSKNTLYLQMNSLRAEDTAMYYCALTGRSGWMRFPNWFDPWGQGTLVTVTS
VL: QSVLTQPPSASGTPGQRVTISCSGSDSNIGSNAVNWYQQLPGTAPKLLIYDNNKRPSGVPDRFSGSKSGTSASLAISGLRSEDEADYYCSSYTSSNTVVFGGGTKLTVLG
notes: as for B3
In test [1], B6 displayed a Kd of 16 nM. Moreover, the binding result in test [2] and in test [7] was “no binding (tested: 20 nM)” each time. Moreover, the EC50 in test [4] worked out at 10.6 nM.

B7: T46P19 Fab (Fab, V domains shown)
VH: EVQLLESGGGLVQPGGSLRLSCAASGFTFSGYGMHWVRQAPGKGLEWVSGINWNGGSTGYADSVKGRFTISRDNSKNTLYLQMNSLRAEDTAVYYCARNRATRSGYYYFDSWGQGTLVTVTS
VL: LTQPPSASGTPGQRVTISCTGSSSNIGAGYDVHWYQQLPGTAPKLLIYGNINRPSGVPDRFSGSKSGTSASLAISGLRSEDEADYYCSSYTRSATLVFGGGTKLTVLG
notes: Human Fab (lambda), expressed in E. coli
Regarding B7, in [1], the Kd came to 7.2 nM. Further, the binding result (in [2]; with dog Protein C (zymogen); with dog activated Protein C [3]; in [7]) was “no binding (tested: 20 nM)” in each case. The EC50 in test [4] came out at 10.3 nM.

B8: T46P19 hIgG1 (antibody, V domains shown)
VH: EVQLLESGGGLVQPGGSLRLSCAASGFTFSGYGMHWVRQAPGKGLEWVSGINWNGGSTGYADSVKGRFTISRDNSKNTLYLQMNSLRAEDTAVYYCARNRATRSGYYYFDSWGQGTLVTVTS
VL: LTQPPSASGTPGQRVTISCTGSSSNIGAGYDVHWYQQLPGTAPKLLIYGNINRPSGVPDRFSGSKSGTSASLAISGLRSEDEADYYCSSYTRSATLVFGGGTKLTVLG
In test [5], B8 showed an EC50 of 0.37 nM. For the same molecule, the binding result (with dog activated Protein C [6]; in test [8]) was “no binding (tested: 20 nM)” each time.

(Values after US20150307625A1 (Bayer, published 2015).)
